B1: complete sortilin cytoplasmic domain (K779-E831), GST tag removed (domain or fragment)
chain: KKYVCGGRFLVHRYSVLQQHAEANGVDGVDALDTASHTNKSGYHDDSDEDLLE
B2: GST-tagged PAK1 (Y270-H545) (domain or fragment)
chain: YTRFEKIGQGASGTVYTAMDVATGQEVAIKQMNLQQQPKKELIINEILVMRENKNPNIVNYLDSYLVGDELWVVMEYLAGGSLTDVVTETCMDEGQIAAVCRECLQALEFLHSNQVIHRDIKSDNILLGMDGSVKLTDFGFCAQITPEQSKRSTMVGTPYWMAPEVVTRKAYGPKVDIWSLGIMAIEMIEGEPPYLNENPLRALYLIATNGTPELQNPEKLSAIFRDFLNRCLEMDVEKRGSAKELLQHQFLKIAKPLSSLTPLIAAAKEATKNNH

Targets include sortilin-cd peptide C (human); sortilin-cd peptide A (human); sortilin-cd peptide B (human).
Assay in all cases: ITC
Background: ITC needs no label: the signal is the heat of the interaction.

The target in assay [1] is B2.

sortilin-cd peptide C (human), sequence (Q13153 270-545): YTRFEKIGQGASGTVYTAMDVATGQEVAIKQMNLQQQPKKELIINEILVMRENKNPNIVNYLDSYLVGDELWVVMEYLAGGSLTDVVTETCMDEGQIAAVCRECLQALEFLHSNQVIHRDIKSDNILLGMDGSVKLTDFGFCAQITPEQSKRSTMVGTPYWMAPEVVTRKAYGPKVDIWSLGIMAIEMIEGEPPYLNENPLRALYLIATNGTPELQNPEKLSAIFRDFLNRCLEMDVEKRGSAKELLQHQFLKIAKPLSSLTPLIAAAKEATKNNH
sortilin-cd peptide B (human), sequence (Q13153 270-545): as above
sortilin-cd peptide A (human), sequence (Q13153 270-545): as above

For orientation: Kd means the free concentration of one partner at which half of the binding sites on the other are occupied at equilibrium, for simple one-to-one binding. As for B1, the Kd in assay [1] stood at 1.8 µM.

For the molecule B2, the Kd with sortilin-cd peptide C was 3.6 µM; with sortilin-cd peptide A, 14.1 µM; with sortilin-cd peptide B it was 12.6 µM.
